From patent US10781262B2, “Combination therapy of T cell activating bispecific antigen binding molecules and PD-1 axis binding antagonists” (Hoffmann-La Roche Inc., priority 2014, dated 2020)

Tests used:
[1] = target: human Folate Receptor 1 Fc fusion (Homo sapiens, UniProt P15328); conditions: monovalent binding (affinity), analyte huFolR1
Procedure: (§1) Binding of FolR1 binders as IgG or in the T-cell bispecific format to different recombinant folate receptors (human FolR1, 2 and 3, murine FolR1 and cynomolgus FolR1; all as Fc fusions) was assessed by surface plasmon resonance (SPR). All SPR experiments were performed on a Biacore T200 at 25° C. with HBS-EP as running buffer (0.01 M HEPES pH 7.4, 0.15 M NaCl, 3 mM EDTA, 0.005% Surfactant P20, Biacore, Freiburg/Germany).
(§2) For affinity measurement, direct coupling of around 6000-7000 resonance units (RU) of the anti-human Fab specific antibody (Fab capture kit, GE Healthcare) was performed on a CM5 chip at pH 5.0 using the standard amine coupling kit (GE Healthcare). Anti-FolR1 IgGs or T cell bispecifics were captured at 20 nM with a flow rate of 10 μl/min for 20 or 40 sec, the reference flow cell was left without capture. Dilution series (6.17 to 500 nM or 12.35 to 3000 nM) of human or cyno Folate Receptor 1 Fc fusion were passed on all flow cells at 30 μl/min for 120 or 240 sec to record the association phase. The dissociation phase was monitored for 240 s and triggered by switching from the sample solution to HBS-EP. The chip surface was regenerated after every cycle using a double injection of 60 sec 10 mM Glycine-HCl pH 2.1 or pH 1.5. Bulk refractive index differences were corrected for by subtracting the response obtained on the reference flow cell 1. The affinity constants for the interactions were derived from the rate constants by fitting to a 1:1 Langmuir binding using the Bia Evaluation software (GE Healthcare).

[2] = system: cyno Folate Receptor 1 Fc fusion; conditions: monovalent binding (affinity), analyte cyFolR1
Procedure: as §1, §2

huFolR1-Fc = experiment: SPR epitope binning; format: binding, human; conditions: label = immobilized binder; 500 nM; note: key: + means binding; − means no binding; +/− means weak binding
Procedure: 500 nM huFolR1-Fc was then captured for 60 s, followed by 500 nM of the different binders for 30 s. The surface was regenerated with two injections of 10 mM glycine pH 2 for 30 s each.

human FolR1 = human FolR1 (Homo sapiens, UniProt P15328); conditions: IgG injected for 60 seconds at 500 nM
Procedure: as §1
(§3) First the anti-FolR1 IgGs were analyzed by single injections (Table 1) to characterize their crossreactivity (to human, murine and cyno FolR1) and specificity (to human FolR1, human FolR2, human FolR3). Recombinant biotinylated monomeric Fc fusions of human, cynomolgus and murine Folate Receptor 1 (FolR1-Fc) or human Folate Receptor 2 and 3 (FolR2-Fc, FolR3-Fc) were directly coupled on a SA chip using the standard coupling instruction (Biacore, Freiburg/Germany). The immobilization level was about 300-400 RU. The IgGs were injected for 60 seconds at a concentration of 500 nM.

cynomolgus FolR1 = conditions: IgG injected for 60 seconds at 500 nM
Procedure: as §1, §3

human FolR3 = human FolR3 (Homo sapiens, UniProt P41439); conditions: IgG injected for 60 seconds at 500 nM
Procedure: as §1, §3

human FolR2 = human FolR2 (Homo sapiens, UniProt P14207); conditions: IgG injected for 60 seconds at 500 nM
Procedure: as §1, §3

murine FolR1 = murine FolR1 (Mus musculus, UniProt P35846); conditions: IgG injected for 60 seconds at 500 nM
Procedure: as §1, §3

[3] = target: T1, human Folate Receptor 1 (FolR1-Fc) (Homo sapiens, UniProt P15328); experiment: SPR avidity to Folate Receptor 1 (bivalent binding); conditions: bivalent binding (avidity), ligand huFolR1
T1 construct: the extracellular domain of the antigen linked to the hinge region of Fc-knob; made in house; host or cells: HEK293 EBNA
Description: The immobilization level was about 300-400 RU. […] The dissociation was monitored for 600 seconds.

[4] = system: cynomolgus Folate Receptor 1 (FolR1-Fc); conditions: bivalent binding (avidity), ligand cyFolR1
Procedure: as §1
The avidity of the interaction between the anti-FolR1 IgGs or T cell bispecifics and the recombinant folate receptors was determined as described below (Table 9). Recombinant biotinylated monomeric Fc fusions of human, cynomolgus and murine Folate Receptor 1 (FolR1-Fc) were directly coupled on a SA chip using the standard coupling instruction (Biacore, Freiburg/Germany). The immobilization level was about 300-400 RU. The anti-FolR1 IgGs or T cell bispecifics were passed at a concentration range from 2.1 to 500 nM with a flow of 30 μL/minutes through the flow cells over 180 seconds. The dissociation was monitored for 600 seconds. […] The binding curves resulting from the bivalent binding of the IgGs or T cell bispecifics were approximated to a 1:1 Langmuir binding and fitted with that model (which is not correct, but gives an idea of the avidity). The apparent avidity constants for the interactions were derived from the rate constants of the fitting using the Bia Evaluation software (GE Healthcare).

B1: Mov19: reference molecule, the human FolR1 binder Mov19 (IgG) (antibody, V domains shown)
VH: QVQLQQSGAELVKPGASVKISCKASGYSFTGYFMNWVKQSHGKSLEWIGRIHPYDGDTFYNQNFKDKATLTVDKSSNTAHMELLSLTSEDFAVYYCTRYDGSRAMDYWGQGTTVTVSS
VL: DIELTQSPASLAVSLGQRAIISCKASQSVSFAGTSLMHWYHQKPGQQPKLLIYRASNLEAGVPTRFSGSGSKTDFTLNIHPVEEEDAATYYCQQSREYPYTFGGGTKLEIK
ka [1]: 289000 M⁻¹ s⁻¹ | kd [1]: 0.000159 s⁻¹ | ka [2]: 297000 M⁻¹ s⁻¹ | kd [2]: 0.000193 s⁻¹ | binding of analyte in solution 9D11 TCB to huFolR1 captured on the immobilized binder (huFolR1-Fc): +/− | binding of analyte in solution 16D5 TCB to huFolR1 captured on the immobilized binder (huFolR1-Fc): + | binding of analyte in solution 21A5 TCB to huFolR1 captured on the immobilized binder (huFolR1-Fc): + | binding of analyte in solution 36F2 IgG to huFolR1 captured on the immobilized binder (huFolR1-Fc): − | binding of analyte in solution Farletuzumab to huFolR1 captured on the immobilized binder (huFolR1-Fc): − | binding of analyte in solution Mov19 IgG to huFolR1 captured on the immobilized binder (huFolR1-Fc): − | Binding to huFolR1 (human FolR1): + | Binding to cyFolR1 (cynomolgus FolR1): + | Binding to huFolR3 (human FolR3): − | Binding to huFolR2 (human FolR2): − | Binding to muFolR1 (murine FolR1): − | ka [3]: 861000 M⁻¹ s⁻¹ | kd [3]: 0.000121 s⁻¹ | binding to erythrocytes (erythrocytes): could not observe any specific binding | ka [4]: 1.29e+06 M⁻¹ s⁻¹ | kd [4]: 0.000139 s⁻¹
